Measurements as given in patent US20240218052A1.

Target: SARS CoV-2 parental (Wuhan-Hu-1) receptor binding domain (RBD) protein, amino acids 319 to 541 of th (SARS-CoV-2, Wuhan-Hu-1 isolate), P0DTC2
Test: ELISA, antigen coated, chimeric IgG1 titrated, anti-human Fc-HRP
Settings: remark: other sources report otherwise

Row | Binder | EC50
1 | SKD chimeric bovine-human IgG1 (ultralong CDR3) (antibody) VH: QVQLRESGPSLVKPSQTLSLTCTASGFSLSDKAVGWVRQAPGKALEWLGSIDTGGNTGYNPGLKSRLSITKDNSKSQVSLSVSSVTTEDSATYYCTTVHQRTSEKRSCPGGSSRRYPSGASCDVSGGACACYVSNCRGVLCPTLNEIVAYTYEWHVDAWGQGLLVTVSS VL: QAVLNQPSSVSGSLGQRVSITCSGSSSNVGNGYVSWYQLIPGSAPRTLIYGDTSRASGVPDRFSGSRSGNTATLTISSLQAEDEADYFCASAEDSSSNAVFGSGTTLTVL | 0.19 nM
2 | SKM chimeric bovine-human IgG1 (ultralong CDR3) (antibody) VH: QVQLRESGPSLVKPSQTLSLTCTASGFSLSDKAVGWVRQAPGKALEWLGSIDTGGNTGYNPGLKSRLSITKDNSKSQVSLSVSSVTTEDSATYYCTTVHQETLRSCPDGYIDNSGCTADWGCAALDCWRRRFGYHSTDPSHYTGATYIYTYSLHIDAWGQGLLVTVSS VL: QAVLNQPSSVSGSLGQRVSITCSGSSSNVGNGYVSWYQLIPGSAPRTLIYGDTSRASGVPDRFSGSRSGNTATLTISSLQAEDEADYFCASAEDSSSNAVFGSGTTLTVL | 0.24 nM
